Data as given in patent US6150515, “Tat-SF: cofactor for stimulation of transcriptional elongation by HIV-1 Tat” (Massachusetts Institute of Technology, dated 2000).

Target: HIV-1 Tat, recombinant wild type Tat protein (HIV-1, UniProt P04608)
Assay: cell-based or functional assay

B1: Tat-Stimulatory Factor protein Tat-SF1 (pp140) (other)
chain: MSGTNLDGNDEFDEQLRMQELYGDGKDGDTQTDAGGEPDSLGQQPTDTPYEWDLDKKAWFPKITEDFIATYQANYGFSNDGASSSTANVEDVHARTAEEPPQEKAPEPTDARKKGEKRKAESGWFHVEEDRNTNVYVSGLPPDITVDEFIQLMSKFGIIMRDPQTEEFKVKLYKDNQGNLKGDGLCCYLKRESVELALKLLDEDEIRGYKLHVEVAKFQLKGEYDASKKKKKCKDYKKKLSMQQKQLDWRPERRAGPSRMRHERVVIIKNMFHPMDFEDDPLVLNEIREDLRVECSKFGQIRKLLLFDRHPDGVASVSFRDPEEADYCIQTLDGRWFGGRQITAQAWDGTTDYQVEETSREREERLRGWEAFLNAPEANRGLSVQILSLLRKAGPSRARHFSEHPSTSKMNAQETATGMAFEEPIDEKKFEKTEDGGEFEEGASENNAKESSPEKEAEEGCPEKESEEGCPKRGFEGSCSQKESEEGNPVRGSEEDSPKKESKKKTLKNDCEENGLAKESEDDLNKESEEEVGPTKESEEDDSEKESDEDCSEKQSEDGSEREFEENGLEKDLDEEGSEKELHENVLDKELEENDSENSEFEDDGSEKVLDEEGSEREFDEDSDEKEEEEDTYEKVFDDESDEKEDEEYADEKGLEAADKKAEEGDADEKLFEESDDKEDEDADGKEVEDADEKLFEDDDSNEKLFDEEEDSSEKLFDDSDERGTLGGFGSVEEGPLSTGSSFILSSDDDDDDI
modifications: phosphorylated by its associated kinase in the kinase reactions (gamma-32P ATP); sites not stated
  fold activation by Tat of an HIV-1 LTR-CAT reporter (pBennCAT) in HeLa cells co-transfected with pSV-Tat-SF1, relative to empty vector: 5.2 fold
